Laboratory results as given in publication PMC4167889 (Molecular cell, 2009).
Values belong to the molecule of their own block, whether it stands above or below them.

Legend:
[1] = molecular target: recombinant wild-type p105, His-tagged (E. coli) (UniProt P25799); assay: SEC
AUC = molecular target: the molecule itself; assay: AUC

- stoichiometry N [1]: 1
Molecule: p50, the 50 kD N-terminal product of recombinant p105 (E. coli) (domain or fragment)

B1: recombinant wild-type p105, His-tagged (E. coli) (natural protein, UniProt P25799-1 1-971, looked up)
chain: MADDDPYGTGQMFHLNTALTHSIFNAELYSPEIPLSTDGPYLQILEQPKQRGFRFRYVCEGPSHGGLPGASSEKNKKSYPQVKICNYVGPAKVIVQLVTNGKNIHLHAHSLVGKHCEDGVCTVTAGPKDMVVGFANLGILHVTKKKVFETLEARMTEACIRGYNPGLLVHSDLAYLQAEGGGDRQLTDREKEIIRQAAVQQTKEMDLSVVRLMFTAFLPDSTGSFTRRLEPVVSDAIYDSKAPNASNLKIVRMDRTAGCVTGGEEIYLLCDKVQKDDIQIRFYEEEENGGVWEGFGDFSPTDVHRQFAIVFKTPKYKDVNITKPASVFVQLRRKSDLETSEPKPFLYYPEIKDKEEVQRKRQKLMPNFSDSFGGGSGAGAGGGGMFGSGGGGGSTGSPGPGYGYSNYGFPPYGGITFHPGVTKSNAGVTHGTINTKFKNGPKDCAKSDDEESLTLPEKETEGEGPSLPMACTKTEPIALASTMEDKEQDMGFQDNLFLEKALQLARRHANALFDYAVTGDVKMLLAVQRHLTAVQDENGDSVLHLAIIHLHAQLVRDLLEVTSGLISDDIINMRNDLYQTPLHLAVITKQEDVVEDLLRVGADLSLLDRWGNSVLHLAAKEGHDRILSILLKSRKAAPLIDHPNGEGLNAIHIAVMSNSLPCLLLLVAAGAEVNAQEQKSGRTALHLAVEYDNISLAGCLLLEGDAHVDSTTYDGTTPLHIAAGRGSTRLAALLKAAGADPLVENFEPLYDLDDSWEKAGEDEGVVPGTTPLDMAANWQVFDILNGKPYEPVFTSDDILPQGDMKQLTEDTRLQLCKLLEIPDPDKNWATLAQKLGLGILNNAFRLSPAPSKTLMDNYEVSGGTIKELMEALQQMGYTEAIEVIQAAFRTPATTASSPVTTAQVHCLPLSSSSTRQHIDELRDSDSVCDSGVETSFRKLSFTESLTGDSPLLSLNKMPHGYGQEGPIEGKI
- stoichiometry N (AUC): 2
